According to patent US20140274782A1, “AFFINITY REAGENTS AND METHODS FOR DETECTION, PURIFICATION, AND PROTEOMIC ANALYSIS OF METHYLATED PROTEINS” (The Board of Trustees of the Leland Stanford Junior …, priority 2013, published 2014):

Columns and labels:
3×MBT domain of L3MBTL1 = test: Triple SILAC pull-down, 3xMBT/3xMBTD355N ratio (cytoplasmic, nuclear and chromatin fractions of 293T cells); type: binding, human; details: SILAC ratio 3xMBT vs 3xMBTD355N pull-down, 293T cells, all values in log base 2;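 note: proteins quantified with MaxQuant, requiring at least two unique peptides and quantification in both label directions, normalized to the mean of proteins from a digested loading control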
G9a and GLP = target: T1, G9a and GLP (Homo sapiens, UniProt Q96KQ7+Q9H9B1); test: Triple SILAC pull-down after UNC0638 treatment of 293T cells, DMSO/UNC0638 ratio of protein captured by 3×MBT; type: cell-based; parameters: cells were treated for 24 hours with UNC0638 at 2.5 μM or DMSO vehicle control; endogenous in cells; host or cells: HEK 293T; details: all values in log base 2;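 note: mass spectrometry (Q-Exactive) SILAC quantitation, DMSO/UNC0638 ratio computed after subtracting 3×MBTD355N mutant pull-down background, only proteins with at least twofold 3×MBT over mutant signal considered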
T1 sequence (Q96KQ7 2-1210 limits assumed): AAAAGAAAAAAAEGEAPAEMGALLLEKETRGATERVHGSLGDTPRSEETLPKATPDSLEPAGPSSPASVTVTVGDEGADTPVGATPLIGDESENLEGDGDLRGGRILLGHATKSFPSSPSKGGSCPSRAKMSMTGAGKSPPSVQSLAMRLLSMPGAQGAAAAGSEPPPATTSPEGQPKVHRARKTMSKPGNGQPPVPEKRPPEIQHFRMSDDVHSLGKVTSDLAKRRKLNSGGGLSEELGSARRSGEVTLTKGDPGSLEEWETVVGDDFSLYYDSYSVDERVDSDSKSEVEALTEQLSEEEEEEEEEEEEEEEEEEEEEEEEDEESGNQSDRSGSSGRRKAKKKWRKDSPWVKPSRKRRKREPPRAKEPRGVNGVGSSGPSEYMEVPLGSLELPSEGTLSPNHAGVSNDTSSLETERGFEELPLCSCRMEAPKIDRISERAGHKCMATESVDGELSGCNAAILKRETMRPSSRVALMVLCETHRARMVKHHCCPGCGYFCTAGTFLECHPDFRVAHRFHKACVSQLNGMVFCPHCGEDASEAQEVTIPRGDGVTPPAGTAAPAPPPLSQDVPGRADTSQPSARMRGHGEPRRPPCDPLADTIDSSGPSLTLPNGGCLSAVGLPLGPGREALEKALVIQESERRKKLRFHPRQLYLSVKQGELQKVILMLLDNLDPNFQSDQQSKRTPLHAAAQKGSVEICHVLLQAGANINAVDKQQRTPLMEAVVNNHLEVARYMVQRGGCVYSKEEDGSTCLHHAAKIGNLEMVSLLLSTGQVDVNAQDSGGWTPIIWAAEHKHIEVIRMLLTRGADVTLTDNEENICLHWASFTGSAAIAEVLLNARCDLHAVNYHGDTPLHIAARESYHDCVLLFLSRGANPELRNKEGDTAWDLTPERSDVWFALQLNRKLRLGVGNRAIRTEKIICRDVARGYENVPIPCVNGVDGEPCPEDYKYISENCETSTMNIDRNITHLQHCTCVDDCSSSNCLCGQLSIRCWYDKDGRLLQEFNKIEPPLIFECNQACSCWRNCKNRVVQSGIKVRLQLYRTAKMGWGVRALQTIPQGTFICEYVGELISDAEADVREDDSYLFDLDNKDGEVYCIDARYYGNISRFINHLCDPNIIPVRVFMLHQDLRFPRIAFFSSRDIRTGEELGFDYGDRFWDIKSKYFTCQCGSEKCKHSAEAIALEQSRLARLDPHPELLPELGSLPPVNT
T1 sequence (Q9H9B1 2-1298 limits assumed): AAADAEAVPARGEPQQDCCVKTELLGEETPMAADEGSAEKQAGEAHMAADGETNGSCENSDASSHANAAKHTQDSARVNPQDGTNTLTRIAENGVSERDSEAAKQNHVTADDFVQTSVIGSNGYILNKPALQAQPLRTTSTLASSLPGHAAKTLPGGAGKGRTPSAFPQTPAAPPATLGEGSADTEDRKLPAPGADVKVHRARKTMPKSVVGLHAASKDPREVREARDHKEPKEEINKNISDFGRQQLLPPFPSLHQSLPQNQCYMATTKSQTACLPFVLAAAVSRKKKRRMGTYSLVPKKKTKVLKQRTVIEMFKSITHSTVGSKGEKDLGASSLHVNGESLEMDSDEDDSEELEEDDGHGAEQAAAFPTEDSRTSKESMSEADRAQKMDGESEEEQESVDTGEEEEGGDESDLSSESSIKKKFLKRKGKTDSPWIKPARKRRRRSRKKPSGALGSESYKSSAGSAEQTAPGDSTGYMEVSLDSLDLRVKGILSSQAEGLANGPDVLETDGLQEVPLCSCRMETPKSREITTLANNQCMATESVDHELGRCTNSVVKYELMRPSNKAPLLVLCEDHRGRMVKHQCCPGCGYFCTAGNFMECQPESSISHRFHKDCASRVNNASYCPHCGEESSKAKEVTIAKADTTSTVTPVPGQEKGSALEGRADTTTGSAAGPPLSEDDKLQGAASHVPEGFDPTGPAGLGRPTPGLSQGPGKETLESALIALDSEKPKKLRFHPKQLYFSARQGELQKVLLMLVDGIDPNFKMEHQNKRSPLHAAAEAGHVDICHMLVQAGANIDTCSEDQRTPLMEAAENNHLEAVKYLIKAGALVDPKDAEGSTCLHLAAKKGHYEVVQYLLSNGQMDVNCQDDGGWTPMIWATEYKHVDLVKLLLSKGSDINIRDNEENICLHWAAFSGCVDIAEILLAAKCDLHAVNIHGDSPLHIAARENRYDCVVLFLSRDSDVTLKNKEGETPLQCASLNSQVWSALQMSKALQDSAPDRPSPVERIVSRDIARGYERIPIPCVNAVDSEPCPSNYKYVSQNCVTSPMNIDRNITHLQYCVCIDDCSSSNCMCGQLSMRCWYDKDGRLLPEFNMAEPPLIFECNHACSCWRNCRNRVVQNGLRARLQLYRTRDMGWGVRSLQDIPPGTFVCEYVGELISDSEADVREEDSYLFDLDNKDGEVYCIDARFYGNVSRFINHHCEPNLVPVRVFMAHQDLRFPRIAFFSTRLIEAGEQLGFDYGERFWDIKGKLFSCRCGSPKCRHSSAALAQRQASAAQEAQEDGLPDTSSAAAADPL

Relative to UNC0638 UNC Heavy (G9a and GLP; SILAC ratio DMSO relative to UNC0638, pull-down with 3xMBT, UNC0638 in heavy SILAC media): 0.59 log base 2 | Relative to UNC0638 UNC Light (G9a and GLP; SILAC ratio DMSO relative to UNC0638, pull-down with 3xMBT, UNC0638 in light SILAC media): −0.85 log base 2 | Relative to UNC0638 Average (G9a and GLP; average of UNC Light and UNC Heavy experiments): −0.13 log base 2
B1: SCML2: protein with methylated lysine identified in 3xMBT pull-down (protein, UniProt Q9UQR0 1-700, looked up)
Sex comb on midleg-like …: MGQTVNEDSMDVKKENQEKTPQSSTSSVQRDDFHWEEYLKETGSISAPSECFRQSQIPPVNDFKVGMKLEARDPRNATSVCIATVIGITGARLRLRLDGSDNRNDFWRLVDSPDIQPVGTCEKEGDLLQPPLGYQMNTSSWPMFLLKTLNGSEMASATLFKKEPPKPPLNNFKVGMKLEAIDKKNPYLICPATIGDVKGDEVHITFDGWSGAFDYWCKYDSRDIFPAGWCRLTGDVLQPPGTSVPIVKNIAKTESSPSEASQHSMQSPQKTTLILPTQQVRRSSRIKPPGPTAVPKRSSSVKNITPRKKGPNSGKKEKPLPVICSTSAASLKSLTRDRGMLYKDVASGPCKIVMSTVCVYVNKHGNFGPHLDPKRIQQLPDHFGPGPVNVVLRRIVQACVDCALETKTVFGYLKPDNRGGEVITASFDGETHSIQLPPVNSASFALRFLENFCHSLQCDNLLSSQPFSSSRGHTHSSAEHDKNQSAKEDVTERQSTKRSPQQTVPYVVPLSPKLPKTKEYASEGEPLFAGGSAIPKEENLSEDSKSSSLNSGNYLNPACRNPMYIHTSVSQDFSRSVPGTTSSPLVGDISPKSSPHEVKFQMQRKSEAPSYIAVPDPSVLKQGFSKDPSTWSVDEVIQFMKHTDPQISGPLADLFRQHEIDGKALFLLKSDVMMKYMGLKLGPALKLCYYIEKLKEGKYS
3xMBT/D355N UNC Heavy (3×MBT domain of L3MBTL1; experiment with UNC0638 in heavy SILAC media): 1.39 log base 2 | 3xMBT/D355N UNC Light (3×MBT domain of L3MBTL1; experiment with UNC0638 in light SILAC media): 1.28 log base 2
